Laboratory results as given in patent publication US9475855B2, “Human Notch3 based fusion proteins as decoy inhibitors of Notch3 signaling” (THE TRUSTEES OF COLUMBIA UNIVERSITY IN THE CITY OF NEW YORK, priority 2008, dated 2016).

Columns and labels:
[1] = system: VEGF-induced angiogenesis; assay: mouse Dorsa Air Sac (DAS) assay; type: in vivo
Description: These Figures show the role of Notch signaling in VEGF-dependent in vivo angiogenesis. FIGS. 25A-25D show inhibition of VEGF-induced angiogenesis with N1ECDFc in mouse DAS assay. Representative photographs are shown. FIG. 25A show subcutaneous induced angiogenesis with 293/VEGF transfectant versus 293/VEGF also expressing Notch decoy (Notch-based fusion protein) N1ECDFc. […] MDA-MB-231 breast cancer cells produce VEGF (data not shown).

Ad-VEGF-infected HUVEC = assay: VEGF-induced HUVEC budding (sprouting) on collagen gel; type: cell-based, human; details: for budding / morphology of HUVEC with Notch fusion protein alone: no Ad-VEGF
Protocol: For making collagen gels, an ice-cold solution of porcine type I collagen (Nitta gelatin, Tokyo, Japan) was mixed with 10xRPMI1640 medium and neutralization buffer at the ratio of 8:1:1. 400 μl aliquots of collagen gel were then added to 24-well plates and allowed to gel for at least 1 hour at 37° C. Following adenoviral infection (above), HUVEC was harvested and plated at 1.3×10^5 cells per well onto the top of the collagen gel in 24-well plates in 0.8 ml of EGM2 medium. HUVEC became nearly confluent 48 hours after plating. After seeding, medium was changed every 2 days for 1 week. Sprouting was observed and photographs taken after 8 days with an Olympus digital camera mounted to a microscope. For quantification of the number of sprouts, 5 fields per each well were randomly selected and sprouting was counted under microscopy in a blind manner by two investigators.
In this experiment, we evaluated the effect of Notch decoy on induction of budding (initiation of sprouting) by over-expressed VEGF-165 in HUVEC. When Ad-VEGF-infected HUVEC were cultured on type collagen gel for 8 days, budding was induced into collagen gel.

CBF1 promoter activity = assay: VEGF-induced Notch signaling, CBF1 promoter (CSL-luciferase) reporter activity in HUVEC; type: cell-based, human; details: for inhibition of CBF1 promoter activity induced by Ad-VEGF: 40 MOI for each adenovirus; for VEGF-induced CBF1 promoter / CSL-luciferase reporter activity: Ad-VEGF-transduced HUVEC
Protocol: To determine VEGF-induced Notch signaling, HUVEC which were infected with adenovirus were used. HUVEC plated 1-day prior in 6 well plates at 8.0×10^5 were infected with either Ad-LacZ as control or Ad-VEGF at indicated m.o.i. in the presence or absence of Ad-N1ECD/Fc. Two days after infection, infected HUVEC were re-seeded into 24-well plate at 1.5×10^5 cell in triplicate and cultured for 24 hours, and then transfected with 12.5 ng pRL-SV40 (Promega) and 137.5 ng pGA981-6 using Effectene transfection reagent (Qiagen). Cells were harvested either 1 or 2 days post-transfection and luciferase activity was determined by using the Dual-Luciferase® Reporter Assay System (Promega).
One can measure Notch signaling function by measuring transcriptional activity of CBF1 promoter, which is activated by binding of Notch-IC to CBF1. We measured CBF1 promoter activity in HUVEC which was infected with adenovirus encoding VEGF-165 at different MOI (FIG. 6). Induction of CBF1 promoter was clearly detected in Ad-VEGF-infected HUVEC, compared to Ad-LacZ-infected cells in the MOI dependent manner. […] Thus VEGF induced Notch signaling activity.

MMP9 [2] = assay: RT-PCR analysis of MMP9 expression in HUVEC; type: cell-based, human
Protocol: (§1) FIGS. 24A-B show gelatin zymography analysis of MMP-9 and MMP-2 activity stimulated by VEGF in HUVEC. […] Transduced HUVEC were cultured on fibrin gel on the indicated day (i.e. D2, D4, D6, D8). Similar results were also obtained by using collagen gel, although induction of MMP-9 was stronger on fibrin gel than collagen gel (data not shown). […] HUVEC were transduced with Ad-N1ECDFc at the indicated doses and condition medium was collected from HUVEC cultured on collagen gel at day 4. FIGS. 24C-D show up-regulation of MMP-9 and MT1-MMP with Notch signaling. HUVEC were transduced with either Ad-LacZ or Ad-N1IC at 40 MOI. Numbers show PCR cycles. […] HUVEC were transduced with Ad-VEGF in the absence or presence of co-transduction of Ad-N1ECDFc at 40 MOI each. Ad-LacZ was co-transduced to make the same total amount of adenovirus at 80 MOI.
(§2) Requisition of MMPs for angiogenic sprouting has been established by synthetic MMP inhibitors (16). GM6001 is one broad inhibitor against MMPs including MMP2, MMP9 and MT1-MMP (18).

MMP9 [3] = assay: gelatin zymography of conditioned medium, MMP-9; type: cell-based, human; details: co-transduction with Ad-VEGF, fibrin gel
Protocol: as §1, §2

MMP2 = assay: gelatin zymography of conditioned medium, MMP-2; type: cell-based, human; details: co-transduction with Ad-VEGF, collagen gel, day 4
Protocol: as §1, §2

MT1-MMP = assay: RT-PCR analysis of MT1-MMP expression in HUVEC; type: cell-based, human
Protocol: as §1, §2

HUVEC = HUVEC proliferation (CCK-8 kit); type: cell-based, human; details: transduced N1ECDFc, complete medium, 4 days
Protocol: These Figures show proliferation of Ad-VEGF165-transduced HUVEC. HUVEC were transduced with Ad-VEGF165 at the indicated dosages. Ad-LacZ was also co-infected to make the same total amount of adenovirus at a MOI of 40 pfu/cell. HUVEC were suspended in SFM supplemented with 1% FBS and then plated at 1×10^4 cells/well in 24-well multi-wll plates with 0.4 ml of medium. After 4 days, cell numbers were determined using the CCK-8 kit and the results are indicated as the ratio of cell numbers determined to the number of control cells, which were transduced with Ad-GFP at a MOI of 40 pfu/cell. […] Ad-VEGF-transduced HUVEC were treated with SU5416 at the indicated dosages.
These Figures show the effect of alteration of Notch signaling on cell proliferation. The cells were transduced with the indicated adenoviruses. Ad-GFP was also co-infected to make the same total amount of adenovirus at a MOI of 60 pfu/cell. After 4 days, cell numbers were determined using the CCK-8 kit and results are indicated as the ratio of cell numbers determined to the number of control cells, which were transduced with AD-GFP at MOI of 60 pfu/cell. […] Transduced HUVEC were suspended in complete medium and then plated at 1×10^4 cells/well in 24-well multiwell plates with 0.4 ml of indicated medium (□: Ad-N1IC; ▪: Ad-N1ECDFc). […]

[4] = in vivo assays to model VEGF-induced skin neovascularization
[5] = Ad-N1ECDFc infection alone, Ad-LacZ infected HUVEC (data not shown)
[6] = Ad-VEGF-HUVEC, co-transduction at 40 MOI each

B1: N1ECDFc: Notch-based fusion protein or decoy: Notch1 extracellular domain EGF repeats fused to Fc; expressed from plasmid or adenovirus (Ad-N1ECDFc) (protein)
chain: ARGLRCSQPSGTCLNGGRCEVANGTEACVCSGAFVGQRCQDPSPCLSTPCKNAGTCYVVDHGGIVDYACSCPLGFSGPLCLTPLANACLANPCRNGGTCDLLTLTEYKCRCPPGWSGKSCQQADPCASNPCANGGQCLPFESSYICGCPPGFHGPTCRQDVNECSQNPGLCRHGGTCHNEIGSYRCACRATHTGPHCELPYVPCSPSPCQNGGTCRPTGDTTHECACLPGFAGQNCEENVDDCPGNNCKNGGACVDGVNTYNCRCPPEWTGQYCTEDVDECQLMPNACQNAGTCHNSHGGYNCVCVNGWTGEDCSDNIDDCASAACFQGATCHDRVASFYCECPHGRTGLLCHLNDACISNPCNEGSNCDTNPVNGKAICTCPRGYTGPACSQDVDECALGANPCEHAGKCLNTLGSFECQCLQGYTGPRCEIDVNECISNPCQNDATCLDQIGEFQCICMPGYEGVYCEINTDECASSPCLHNGRCVDKINEFLCQCPKGFSGHLCQYDVDECASTPCKNGAKCLDGPNTYTCVCTEGYTGTHCEVDIDECDPDPCHIGLCKDGVATFTCLCQPGYTGHHCETNINECHSQPCRHGGTCQDRDNYYLCLCLKGTTGPNCEINLDDCASNPCDSGTCLDKIDGYECACEPGYTGSMCNVNIDECAGSPCHNGGTCEDGIAGFTCRCPEGYHDPTCLSEVNECNSNPCIHGACRDGLNGYKCDCAPGWSGTNCDINNNECESNPCVNGGTCKDMTSGYVCTCREGFSGPNCQTNINECASNPCLNQGTCIDDVAGYKCNCPLPYTGATCEVVLAPCATSPCKNSGVCKESEDYESFSCVCPTGWQGQTCEIDINECVKSPCRHGASCQNTNGSYRCLCQAGYTGRNCESDIDDCRPNPCHNGGSCTDGVNAAFCDCLPGFQGAFCEEDINECATNPCQNGANCTDCVDSYTCTCPTGFNGIHCENNTPDCTESSCFNGGTCVDGINSFTCLCPPGFTGSYCQYDVNECDSRPCLHGGTCQDSYGTYKCTCPQGYTGLNCQNLVRWCDSAPCKNGGKCWQTNTQYHCECRSGWTGFNCDVLSVSCEVAAQKRGIDVTLLCQHGGLCVDEEDKHYCHCQAGYTGSYCEDEVDECSPNPCQNGATCTDYLGGFSCKCVAGYHGSNCSEEINECLSQPCQNGGTCIDLTNTYKCSCPRGTQGVHCEINVDDCHPPLDPASRSPKCFNNGTCVDQVGGYTCTCPPGFVGERCEGDVNECLSNPCDPRGTQNCVQRVNDFHCECRAGHTGRRCESVINGCRGKPCRNGGVCAVASNTARGFICRCPARFEGATCENDARTCGSLRCLNGGTCISGPRSPTCLCLGSFTGPECQFPASSPCVGSNPCYNQGTCEPTSESPFYRCLCPAKFNGLLCHILDYSFTDLGPG
modifications: left off: a dimerising Fc or GST
With B1 the “in vivo angiogenesis induced by MDA-MB-231” value ([1]; adenovirus mediated expression of N1ECDFc, compared to adenovirus expressing LacZ) was “clearly inhibited”, the “in vivo angiogenesis induced by 293/VEGF” value ([1]; coexpression of N1ECDFc, compared to 293/VEGF alone) was “clearly inhibited” and the VEGF-induced neo-vascularization [1, 4] was “blocks”. For the same molecule, the “induction of VEGFR-1 expression” value [1, 4] was “blocks”, the “cell number in VEGF-induced budding assay” value (Ad-VEGF-infected HUVEC; FIG. 22I) was “without affecting cell number” and the “budding of Ad-VEGF-HUVEC” value (Ad-VEGF-infected HUVEC; collagen gel) was “clearly inhibited”. The “budding / morphology of HUVEC with Notch fusion protein alone” value (Ad-VEGF-infected HUVEC) was “Neither Ad-LacZ or Ad-N1ECDFc-transduced HUVEC formed buds”, the “budding / morphology of HUVEC with Notch fusion protein alone” value (Ad-VEGF-infected HUVEC; listed as Notch fusion protein) was “less effect on morphology” and the “inhibition of CBF1 promoter activity induced by Ad-VEGF” value (CBF1 promoter activity; 24 hr after reporter gene transfection) was 60%. The “inhibition of CBF1 promoter activity induced by Ad-VEGF” value (CBF1 promoter activity; 48 hr after reporter gene transfection) was 90%, the “VEGF-induced CBF1 promoter / CSL-luciferase reporter activity” value (CBF1 promoter activity) was “clearly decreased” and the “VEGF-induced CBF1 promoter / CSL-luciferase reporter activity” value (CBF1 promoter activity; listed as Notch fusion protein) was “clearly reduced”. The “expression of MMP9” value (MMP9 [2]; [5]) was “did not affect”, the “VEGF-induced up-regulation of MMP9 mRNA” value (MMP9 [2]; [6]) was “inhibited” and the “induction and activation of MMP9” value (MMP9 [3]) was “inhibition”. For the same molecule, the “activation of MMP2” value (MMP2) was “inhibition”, the “expression of MT1-MMP” value (MT1-MMP; [5]) was “did not affect” and the “VEGF-induced up-regulation of MT1-MMP mRNA” value (MT1-MMP; [6]) was “inhibited”. For the same molecule, the “proliferation of HUVEC” value (HUVEC) was “did not clearly alter”.
